Percent of input pulled down data for three molecules are collected here from paper PMC5806898.

Assay [1] concerns the target CD8-sortilin (UniProt Q99523). Description: co-IP; native immunoprecipitation with anti-CD8 and protein A-Sepharose from HeLa cells expressing CD8-CIMPR or CD8-sortilin (control: HeLa cells); western blot, bands quantified with IMAGEJ, 3 repeats. For orientation: A western blot detects proteins with antibodies after separation by electrophoresis.
The target of assay [2] is CD8-CIMPR (UniProt P11717). The assay is described as above.
Sequence of UniProt P11717 (P11717 whole entry): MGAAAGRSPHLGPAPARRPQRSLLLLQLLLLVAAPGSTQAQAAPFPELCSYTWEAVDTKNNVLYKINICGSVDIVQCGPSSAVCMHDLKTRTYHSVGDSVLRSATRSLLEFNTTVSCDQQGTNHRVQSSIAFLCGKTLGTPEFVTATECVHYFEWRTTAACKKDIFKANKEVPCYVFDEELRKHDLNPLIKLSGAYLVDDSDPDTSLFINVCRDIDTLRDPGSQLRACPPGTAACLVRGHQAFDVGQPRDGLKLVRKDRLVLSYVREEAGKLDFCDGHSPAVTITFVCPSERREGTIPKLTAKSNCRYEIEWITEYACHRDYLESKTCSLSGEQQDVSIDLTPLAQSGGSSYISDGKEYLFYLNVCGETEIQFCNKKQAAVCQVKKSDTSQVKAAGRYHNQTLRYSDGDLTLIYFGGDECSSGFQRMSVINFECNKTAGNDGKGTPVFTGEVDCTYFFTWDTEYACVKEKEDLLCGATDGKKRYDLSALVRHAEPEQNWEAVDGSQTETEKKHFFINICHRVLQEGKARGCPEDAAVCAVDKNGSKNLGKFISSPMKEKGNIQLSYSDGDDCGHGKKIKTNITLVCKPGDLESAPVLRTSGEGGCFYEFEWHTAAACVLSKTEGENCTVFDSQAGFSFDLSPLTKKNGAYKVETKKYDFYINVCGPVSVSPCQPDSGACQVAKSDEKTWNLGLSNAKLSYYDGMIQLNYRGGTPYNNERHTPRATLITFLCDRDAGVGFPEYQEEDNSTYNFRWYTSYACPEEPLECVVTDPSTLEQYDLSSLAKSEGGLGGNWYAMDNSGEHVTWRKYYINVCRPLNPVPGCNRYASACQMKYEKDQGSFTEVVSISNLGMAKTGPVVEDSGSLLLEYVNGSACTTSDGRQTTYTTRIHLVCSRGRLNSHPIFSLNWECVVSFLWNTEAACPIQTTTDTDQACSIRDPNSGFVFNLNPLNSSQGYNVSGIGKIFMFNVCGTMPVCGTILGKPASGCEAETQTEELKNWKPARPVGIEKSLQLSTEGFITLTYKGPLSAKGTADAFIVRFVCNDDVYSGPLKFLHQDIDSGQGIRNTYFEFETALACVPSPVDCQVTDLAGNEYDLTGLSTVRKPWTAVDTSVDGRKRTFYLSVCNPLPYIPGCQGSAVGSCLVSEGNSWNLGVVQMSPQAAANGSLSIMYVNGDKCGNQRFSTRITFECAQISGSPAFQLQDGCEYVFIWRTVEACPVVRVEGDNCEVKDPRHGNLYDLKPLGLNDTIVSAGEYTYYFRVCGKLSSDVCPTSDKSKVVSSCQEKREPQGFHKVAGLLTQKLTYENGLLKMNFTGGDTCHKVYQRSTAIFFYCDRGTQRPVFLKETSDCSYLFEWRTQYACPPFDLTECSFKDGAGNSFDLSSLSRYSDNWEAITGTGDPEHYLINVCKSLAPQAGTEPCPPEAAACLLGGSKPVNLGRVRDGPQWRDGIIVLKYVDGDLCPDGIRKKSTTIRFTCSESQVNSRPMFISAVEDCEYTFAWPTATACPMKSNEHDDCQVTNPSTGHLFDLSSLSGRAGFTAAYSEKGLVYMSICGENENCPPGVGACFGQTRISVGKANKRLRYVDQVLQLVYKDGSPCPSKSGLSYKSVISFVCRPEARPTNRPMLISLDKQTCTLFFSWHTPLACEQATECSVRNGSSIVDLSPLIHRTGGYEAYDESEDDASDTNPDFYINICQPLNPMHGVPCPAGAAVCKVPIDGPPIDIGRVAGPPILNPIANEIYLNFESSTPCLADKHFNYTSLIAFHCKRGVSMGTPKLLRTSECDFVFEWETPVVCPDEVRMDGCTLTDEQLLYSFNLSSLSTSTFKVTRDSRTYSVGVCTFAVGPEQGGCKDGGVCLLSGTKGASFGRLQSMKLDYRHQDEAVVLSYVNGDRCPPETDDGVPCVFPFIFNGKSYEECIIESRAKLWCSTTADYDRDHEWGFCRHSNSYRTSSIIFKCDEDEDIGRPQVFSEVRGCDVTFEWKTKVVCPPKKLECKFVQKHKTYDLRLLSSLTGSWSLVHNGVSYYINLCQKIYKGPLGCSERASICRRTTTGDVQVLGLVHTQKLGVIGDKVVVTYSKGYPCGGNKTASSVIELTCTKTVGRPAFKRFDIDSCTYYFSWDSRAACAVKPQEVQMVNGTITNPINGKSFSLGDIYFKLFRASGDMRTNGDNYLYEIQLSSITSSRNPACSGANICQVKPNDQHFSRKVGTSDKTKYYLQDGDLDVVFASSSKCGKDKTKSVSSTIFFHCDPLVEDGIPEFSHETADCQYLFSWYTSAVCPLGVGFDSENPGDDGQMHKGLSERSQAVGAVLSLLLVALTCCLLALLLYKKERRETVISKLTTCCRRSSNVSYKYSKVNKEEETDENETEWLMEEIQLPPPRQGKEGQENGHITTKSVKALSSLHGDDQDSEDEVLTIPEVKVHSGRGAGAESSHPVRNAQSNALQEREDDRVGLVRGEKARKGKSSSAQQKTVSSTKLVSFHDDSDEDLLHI

“AP-1 γ (from UniProt O43747 1-822) (natural protein)”: the values for the percent of input pulled down in assay [1] and in assay [2] were 0.05% and 0.1%, respectively.
On the same counts, the results for “SPG15 (from UniProt Q68DK2 1-2539) (natural protein)” are 0.15% and 0.15%.

B1: AP-5 ζ subunit (natural protein)
chain: MFSAGAESLLHQAREIQDEELKKFCSRICKLLQAEDLGPDTLDSLQRLFLIISATKYSRRLEKTCVDLLQATLGLPACPEQLQVLCAAILREMSPSDSLSLAWDHTQNSRQLSLVASVLLAQGDRNEEVRAVGQGVLRALESRQPEGPSLRHLLPVMAKVVVLSPGTLQEDQATLLSKRLVDWLRYASLQQGLPHSGGFFSTPRARQPGPVTEVDGAVATDFFTVLSSGHRFTDDQWLNVQAFSMLRAWLLHSGPEGPGTLDTDDRSEQEGSTLSVISATSSAGRLLPPRERLREVAFEYCQRLIEQSNRRALRKGDSDLQKACLVEAVLVLDVLCRQDPSFLYRSLSCLKALHGRVRGDPASVRVLLPLAHFFLSHGEAAAVDSEAVYQHLFTRIPVEQFHSPMLAFEFIQFCRDNLHLFSGHLSTLRLSFPNLFKFLAWNSPPLTSEFVALLPALVDAGTALEMLHALLDLPCLTAVLDLQLRSAPAASERPLWDTSLRAPSCLEAFRDPQFQGLFQYLLRPKASGATERLAPLHQLLQPMAGCARVAQCAQAVPTLLQAFFSAVTQVADGSLINQLALLLLGRSDSLYPAPGYAAGVHSVLSSQFLALCTLKPSLVVELARDLLEFLGSVNGLCSRASLVTSVVWAIGEYLSVTYDRRCTVEQINKFFEALEALLFEVTQCRPSAALPRCPPQVVTVLMTTLTKLASRSQDLIPRASLLLSKMRTLAHSPATSSTHSEEGAEAIRTRATELLTLLKMPSVAQFVLTPSTEVCSPRYHRDANTALPLALRTVSRLVEREAGLMPG
For B1, the figures for the percent of input pulled down in assay [1] and in assay [2] were 0.23% and 0.08%, respectively.
